Here are results for two proteins from publication PMC11833248, “Evolutionary and Functional Analysis of Monoamine Oxidase F: A Novel Member of the Monoamine Oxidase Gene Family” (Genome Biology and Evolution, 2025).

Experiment in all cases: purified protein
Holding throughout (settings): 25 °C, 50 mM Hepes/NaOH pH 7.5, 0.5% v/v reduced Triton X-100

Substrate in series [1]: NCc1ccccc1
Substrate in series [2]: NCCC(=O)c1ccccc1N
It is filed as biochemical, Homo sapiens.

Substrate in series [3]: NCCc1ccc(O)cc1
The format is biochemical, Homo sapiens.

Substrate in series [4]: NCCc1ccccc1
The format is biochemical, Homo sapiens.

Substrate in series [5]: NCCc1c[nH]c2ccc(O)cc12

B1: Human MAOB (Homo sapiens) (protein)
chain: SNKCDVVVVGGGISGMAAAKLLHDSGLNVVVLEARDRVGGRTYTLRNQKVKYVDLGGSYVGPTQNRILRLAKELGLETYKVNEVERLIHHVKGKSYPFRGPFPPVWNPITYLDHNNFWRTMDDMGREIPSDAPWKAPLAEEWDNMTMKELLDKLCWTESAKQLATLFVNLCVTAETHEVSALWFLWYVKQCGGTTRIISTTNGGQERKFVGGSGQVSERIMDLLGDRVKLERPVIYIDQTRENVLVETLNHEMYEAKYVISAIPPTLGMKIHFNPPLPMMRNQMITRVPLGSVIKCIVYYKEPFWRKKDYCGTMIIDGEEAPVAYTLDDTKPEGNYAAIMGFILAHKARKLARLTKEERLKKLCELYAKVLGSLEALEPVHYEEKNWCEEQYSGGCYTTYFPPGILTQYGRVLRQPVDRIYFAGTETATHWSGYMEGAVEAGERAAREILHAMGKIPEDEIWQSEPESVDVPAQPITTTFLERHLPSVPGLLRLIGLTTIFSATALGFLAHKRGLLVRV
notes: recombinant, overexpressed and purified by published protocols
Take B1: the Km worked out at 350 ± 100 µM in the series “purified protein [1]”, 52 ± 7 µM in the series “purified protein [2]”, 400 ± 110 µM in the series “purified protein [3]” and 11 ± 1 µM in the series “purified protein [4]”. Besides, the kcat in “purified protein [1]” is 0.738 ± 0.0833 s⁻¹; in “purified protein [2]”, 0.485 ± 0.0167 s⁻¹; in “purified protein [3]” it was 0.742 ± 0.0833 s⁻¹; in the series “purified protein [4]”, 0.758 ± 0.0167 s⁻¹. The kcat/Km in the series “purified protein [1]” stood at 2100 M⁻¹ s⁻¹; in the series “purified protein [2]”, 9300 M⁻¹ s⁻¹; in the series “purified protein [3]” it was 1850 M⁻¹ s⁻¹; in the series “purified protein [4]”, 68900 M⁻¹ s⁻¹.

B2: Human MAOA (Homo sapiens) (protein)
chain: MENQEKASIAGHMFDVVVIGGGISGLSAAKLLTEYGVSVLVLEARDRVGGRTYTIRNEHVDYVDVGGAYVGPTQNRILRLSKELGIETYKVNVSERLVQYVKGKTYPFRGAFPPVWNPIAYLDYNNLWRTIDNMGKEIPTDAPWEAQHADKWDKMTMKELIDKICWTKTARRFAYLFVNINVTSEPHEVSALWFLWYVKQCGGTTRIFSVTNGGQERKFVGGSGQVSERIMDLLGDQVKLNHPVTHVDQSSDNIIIETLNHEHYECKYVINAIPPTLTAKIHFRPELPAERNQLIQRLPMGAVIKCMMYYKEAFWKKKDYCGCMIIEDEDAPISITLDDTKPDGSLPAIMGFILARKADRLAKLHKEIRKKKICELYAKVLGSQEALHPVHYEEKNWCEEQYSGGCYTAYFPPGIMTQYGRVIRQPVGRIFFAGTETATKWSGYMEGAVEAGERAAREVLNGLGKVTEKDIWVQEPESKDVPAVEITHTFWERNLPSVSGLLKIIGFSTSVTALGFVLYKYKLLPRS
notes: as for B1
As for B2, the Km in “purified protein [5]” was 1800 ± 100 µM; in the series “purified protein [2]”, 200 ± 20 µM; in the series “purified protein [3]”, 100 ± 20 µM; in “purified protein [4]”, 400 ± 100 µM. For the same protein, the kcat was determined as 3.777 ± 0.075 s⁻¹ in the series “purified protein [5]”, 1.39 ± 0.0383 s⁻¹ in “purified protein [2]”, 1.53 ± 0.07 s⁻¹ in “purified protein [3]” and 0.803 ± 0.055 s⁻¹ in the series “purified protein [4]”. Further, the kcat/Km turned out to be 2100 M⁻¹ s⁻¹ in the series “purified protein [5]”, 6920 M⁻¹ s⁻¹ in “purified protein [2]”, 15300 M⁻¹ s⁻¹ in the series “purified protein [3]” and 2010 M⁻¹ s⁻¹ in “purified protein [4]”.
